Experimental data from patent publication US20200239555A1 (STATEN BIOTECHNOLOGY B V, published 2020).
Changes are numbered by the printed parent chain.

B1: mAb5 (antibody, IgG1, V domains shown)
VH: QLVESGGGLVQPGGSLRLSCAASGFTFGTYSMRWVRQAPGKGLEWVSSIHTEGGGTAYRDSVKGRFTISRDNAKNTLYLQMNSLRAEDTAVYYCVIAGYSDWGQGTLVTVSS
VL: DIVMTQSPLSLPVTPGESASISCKTSQGLVHSDGKTYFYWFLQKPGQSPQQLIYQVSNRASGVPDRFTGSGSGTDFTLKISRVKAEDAGVYYCAHGTYYPHTFGQGTRLEIK
notes: Produced as full length IgG1 (kappa) in ExpiCHO-S cells; also called humanized anti-ApoC3 antibody mAb5
B2: mAb7 (antibody, V domains shown)
VH: B1 VH with G28S, E52G, S83N, V91I
VL: B1 VL with T68S
notes: Produced as full length IgG1 (kappa) in ExpiCHO-S cells; also called humanized anti-ApoC3 antibody mAb7
B3: mAb15 (antibody, IgG1, V domains shown)
VH: B1 VH with G53A, S83N, R85K, V91I, L107Q
VL: B1 VL with D33G, K84E, H95Q, Q105S
notes: Produced as full length IgG1 (kappa) in ExpiCHO-S cells; also called humanized anti-ApoC3 antibody mAb15
B4: mAb10 (antibody, IgG1, V domains shown)
VH: B1 VH with G28S, A38V, S83N
VL: B1 VL with P12S, T14V, S18P, T68S, K84E, A88V
notes: Produced as full length IgG1 (kappa) in ExpiCHO-S cells; also called humanized anti-ApoC3 antibody mAb10
B5: mAb6 (antibody, IgG1, V domains shown)
VH: B1 VH
VL: B1 VL with T68S
notes: Produced as full length IgG1 (kappa) in ExpiCHO-S cells; also called humanized anti-ApoC3 antibody mAb6
B6: mAb8 (antibody, IgG1, V domains shown)
VH: B1 VH with G28S, E52D, G53A, S83N
VL: B1 VL with P12S, T14V, S18P, T68S, K84E, A88V
notes: Produced as full length IgG1 (kappa) in ExpiCHO-S cells; also called humanized anti-ApoC3 antibody mAb8
B7: mAb3 (antibody, IgG1, V domains shown)
VH: B1 VH with V91I
VL: B1 VL
notes: Produced as full length IgG1 (kappa) in ExpiCHO-S cells; also called humanized anti-ApoC3 antibody mAb3
B8: mAb4 (antibody, IgG1, V domains shown)
VH: B1 VH with V91I
VL: B1 VL with T68S
notes: Produced as full length IgG1 (kappa) in ExpiCHO-S cells; also called humanized anti-ApoC3 antibody mAb4
B9: mAb2 (antibody, IgG1, V domains shown)
VH: B1 VH with A38V, V91I
VL: B1 VL with T68S
notes: Produced as full length IgG1 (kappa) in ExpiCHO-S cells; also called humanized anti-ApoC3 antibody mAb2
B10: mAb1 (antibody, IgG1, V domains shown)
VH: B1 VH with A38V, V91I
VL: B1 VL
notes: Produced as full length IgG1 (kappa) in ExpiCHO-S cells; also called humanized anti-ApoC3 antibody mAb1
B11: mAb9 (antibody, IgG1, V domains shown)
VH: B1 VH with G28S, E52D, G53A, S83N
VL: B1 VL with P12S, S18P, T68S, K84E, A88V
notes: Produced as full length IgG1 (kappa) in ExpiCHO-S cells; also called humanized anti-ApoC3 antibody mAb9
B12: mAb20 (antibody, IgG1, V domains shown)
VH: B1 VH with G28S, E52D, G53A, S83N, A86P
VL: B1 VL with L9G, P12S, S18P, D33G, R82G, K84E
notes: Produced as full length IgG1 (kappa) in ExpiCHO-S cells; also called humanized anti-ApoC3 antibody mAb20
B13: mAb18 (antibody, IgG1, V domains shown)
VH: B1 VH with G28S, G53A, S83N
VL: B1 VL with S18P, D33G, K84E
notes: Produced as full length IgG1 (kappa) in ExpiCHO-S cells; also called humanized anti-ApoC3 antibody mAb18
B14: mAb16 (antibody, IgG1, V domains shown)
VH: B1 VH with G53A, S83N, R85K, V91I, L107Q
VL: B1 VL with D33G, K84E, Q105S
notes: Produced as full length IgG1 (kappa) in ExpiCHO-S cells; also called humanized anti-ApoC3 antibody mAb16

molecular target: T1, native human ApoC3 (human, UniProt P02656 21-99); assay: SPR, ApoC3 over captured IgG1
T1 construct: also called nhuApoC3; native huApoC3
Protocol: (§1) An inverted SPR assay was designed in which a test antibody was captured on an SPR chip, human ApoC3 protein was injected, and binding of ApoC3 to the antibody was measured. […] The immobilization was performed in accordance with the method provided by Biacore/GE using the NHS/EDC kit (Biacore AB, Cat.nr. BR-1000-50): after activation of the chip, a solution of 30 μg/ml of anti-human Fcγ antibody in 10 mM acetate buffer with pH of 5.0 was prepared and injected until the surface density reached approximately 10000 RU. The analytical cycle comprised the following steps:
(§2) The resulting sensorgrams were analyzed using the BIAevaluation 4.1 software using Langmuir 1:1 binding model to derive binding kinetics. Data was zero adjusted, the reference cell sensorgrams were subtracted and the no analyte blank assay was used for double referencing the sensorgrams corresponding to the analyte injections. The dissociation and association phase sensorgrams were fitted separately for the 4 different concentration curves. Sensorgrams were excluded from the fitting if maximum RU values reached were below the detection limit of the equipment (<5 RU), Biacore 3000 (Biacore AB).

T1 sequence (P02656 21-99): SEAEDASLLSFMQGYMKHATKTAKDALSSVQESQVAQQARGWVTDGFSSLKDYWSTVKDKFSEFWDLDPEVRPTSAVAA

| KD (nM) pH5.5/pH7.4 | Binder |
| --- | --- |
| 2.25 | B1 |
| 2.36 | B2 |
| 2.48 | B3 |
| 1.77 | B4 |
| 5.22 | B5 |
| 1 | B6 |
| 1.86 | B7 |
| 3.48 | B8 |
| 2.82 | B9 |
| 3.42 | B10 |
| 2.33 | B11 |

molecular target: T1, native human ApoC3; assay: SPR, ApoC3 over captured IgG1, pH 5.5
Protocol: as §1, §2

| Ka [M⁻¹] | koff [s⁻¹] | kon [M⁻¹ s⁻¹] | Kd [pM] | Binder |
| --- | --- | --- | --- | --- |
| 2.45e+06 | 0.0376 | 92000 |  | B1 |
| 1.71e+06 | 0.0646 | 111000 |  | B2 |
| 1.16e+07 | 0.0116 | 134000 | 86000 | B3 |
| 2.99e+06 | 0.0274 | 82100 |  | B4 |
| 1.16e+06 | 0.0802 | 93100 |  | B5 |
| 4.13e+06 | 0.0205 | 84600 |  | B6 |
| 3.09e+06 | 0.033 | 102000 |  | B7 |
| 2.32e+06 | 0.0359 | 83100 |  | B8 |
| 3.44e+06 | 0.0281 | 96600 |  | B9 |
| 3.95e+06 | 0.0257 | 101000 |  | B10 |
| 1.85e+06 | 0.0467 | 86300 |  | B11 |

molecular target: T1, native human ApoC3; assay: SPR, ApoC3 over captured IgG1, pH 7.4
Protocol: as §1, §2

| Ka [M⁻¹] | koff [s⁻¹] | kon [M⁻¹ s⁻¹] | Kd [pM] | Binder |
| --- | --- | --- | --- | --- |
| 5.51e+06 | 0.00637 | 35100 |  | B1 |
| 747000 | 0.0737 | 55100 |  | B12 |
| 4.05e+06 | 0.012 | 48500 |  | B2 |
| 2.88e+07 | 0.00378 | 109000 | 35000 | B3 |
| 5.3e+06 | 0.00601 | 31900 |  | B4 |
| 1.97e+06 | 0.0539 | 106000 |  | B13 |
| 6.08e+06 | 0.00672 | 40900 |  | B5 |
| 4.15e+06 | 0.00772 | 32100 |  | B6 |
| 5.75e+06 | 0.00582 | 33400 |  | B7 |
| 8.06e+06 | 0.00565 | 45500 |  | B8 |
| 9.69e+06 | 0.0046 | 44500 |  | B9 |
| 1.35e+07 | 0.00426 | 57600 | 74000 | B10 |
| 4.31e+06 | 0.00669 | 28800 |  | B11 |
| 1.68e+06 | 0.0466 | 78100 |  | B14 |

molecular target: T2, biotinylated native human ApoC3 (human, UniProt P02656 21-99, biotinylated (site not stated)); assay: SPR, IgG1 over biotinylated ApoC3 on SA chip
T2 construct: also called biotinylated human ApoC3
Protocol: (§3) Biotinylated native human ApoC3 was captured on a streptavidin coated SPR chip (GE Healthcare, cat. nr. BR100032) at pH 7.4, in accordance with the method provided by Biacore, by injection of 20 μl 10 μg/ml biotinylated native human ApoC3 reaching the surface density of approximately 500 RU. 60 μL of test antibody in 1-50 nM range diluted in HBS-EP buffer (GE, cat # BR-1008-26; 0.010 M HEPES, 0.150M NaCl, 3 mM EDTA, 0.05% (v/v) surfactant P20, pH 7.4) was injected and passed through the flow cells at a flow rate of 30 μl/min, followed by an off-rate wash at pH7.4 for 5 min. After the dissociation, the flow cell surfaces were regenerated by injecting 10 μl of 10 mM NaOH/1 M NaCl and 10 μl of 10 mM glycine at pH1.5. The assay was repeated at pH5.5 using the same general protocol, where the running and sample dilution buffer was replaced by a HBS-EP buffer supplemented with citrate buffer to 10 mM final concentration and pH adjusted to 5.5.
(§4) The resulting sensorgrams were analyzed using the BIAevaluation 4.1 software using Langmuir 1:1 binding model to derive binding kinetics. Data was zero adjusted and the reference cell sensorgrams were subtracted. Sensorgrams were double referenced to no-analyte blank assay. Fitted parameters were considered not applicable if off-rate values were below the equipment's detection limit of kd: 1×10⁻⁶ 1/s.

T2 sequence (P02656 21-99): as above

| KD pH5.5/KD pH7.4 | Binder |
| --- | --- |
| 2.33 | B1 |
| 16.1 | B12 |
| 52.7 | B2 |
| 2.82 | B4 |
| 6.48 | B13 |
| 5.79 | B5 |
| 7.34 | B6 |
| 3.19 | B7 |
| 5.13 | B9 |
| 5.22 | B10 |
| 5.09 | B11 |
| 10.8 | B14 |

molecular target: T2, biotinylated native human ApoC3; assay: SPR, IgG1 over biotinylated ApoC3 on SA chip, pH 5.5
Protocol: as §3, §4

| Ka [M⁻¹] | Kd [pM] | koff [s⁻¹] | kon [M⁻¹ s⁻¹] | Binder |
| --- | --- | --- | --- | --- |
| 2.9e+09 | 350 | 0.000145 | 419000 | B1 |
| 1.06e+08 |  | 0.0214 | 2.27e+06 | B12 |
| 2.05e+08 |  | 0.00321 | 656000 | B2 |
| 2.83e+09 | 350 | 0.000249 | 705000 | B3 |
| 3.7e+09 |  | 0.000113 | 417000 | B4 |
| 1.16e+08 |  | 0.0155 | 1.79e+06 | B13 |
| 2.88e+09 | 350 | 0.000148 | 425000 | B5 |
| 1.34e+09 | 750 | 0.000367 | 490000 | B6 |
| 2.85e+09 | 350 | 0.000127 | 363000 | B7 |
| 2.67e+09 | 370 | 0.000156 | 416000 | B8 |
| 3.54e+09 | 280 | 0.000123 | 435000 | B9 |
| 4.23e+09 | 240 | 0.000104 | 440000 | B10 |
| 1.32e+09 | 760 | 0.000369 | 486000 | B11 |
| 1.34e+08 |  | 0.0121 | 1.63e+06 | B14 |

molecular target: T2, biotinylated native human ApoC3; assay: SPR, IgG1 over biotinylated ApoC3 on SA chip, pH 7.4
Protocol: as §3, §4

| Ka [M⁻¹] | Kd [pM] | koff [s⁻¹] | kon [M⁻¹ s⁻¹] | Binder |
| --- | --- | --- | --- | --- |
| 6.76e+09 | 150 | 3.51e-05 | 237000 | B1 |
| 1.71e+09 | 590 | 0.000487 | 831000 | B12 |
| 1.08e+10 | 90 | 3.37e-05 | 364000 | B2 |
| 1.86e+11 |  | 2.77e-06 | 516000 | B3 |
| 1.05e+10 | 100 | 2.12e-05 | 221000 | B4 |
| 7.49e+08 |  | 0.000838 | 628000 | B13 |
| 1.67e+10 | 60 | 1.33e-05 | 222000 | B5 |
| 9.83e+09 | 100 | 2.41e-05 | 237000 | B6 |
| 9.11e+09 |  | 2.33e-05 | 212000 | B7 |
| 2.15e+11 |  | 1.13e-06 | 243000 | B8 |
| 1.81e+10 | 60 | 1.35e-05 | 245000 | B9 |
| 2.2e+10 | 50 | 1.18e-05 | 261000 | B10 |
| 6.71e+09 | 150 | 3.32e-05 | 223000 | B11 |
| 1.46e+09 | 690 | 0.000375 | 546000 | B14 |
